In US7657380:
Like-named read-outs stand apart in the source and are kept apart here.

Tests used:
[1] = target: T1, human CD30 (commercial, conjugated to digoxigenin) (human, UniProt P28908 19-379, limits assumed, conjugated to digoxigenin (DIG)); test: AlphaScreen competition
T1 sequence (looked up): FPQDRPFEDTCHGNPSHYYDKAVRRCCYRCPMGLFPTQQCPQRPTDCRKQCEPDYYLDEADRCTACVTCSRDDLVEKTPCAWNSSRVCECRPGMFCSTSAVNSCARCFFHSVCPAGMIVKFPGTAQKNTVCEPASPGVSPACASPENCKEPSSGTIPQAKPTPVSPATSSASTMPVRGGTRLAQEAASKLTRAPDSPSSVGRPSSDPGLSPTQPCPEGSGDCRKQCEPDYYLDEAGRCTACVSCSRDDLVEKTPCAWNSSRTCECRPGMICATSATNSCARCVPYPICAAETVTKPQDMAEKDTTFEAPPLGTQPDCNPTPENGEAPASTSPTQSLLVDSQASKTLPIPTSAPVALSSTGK

[2] = target: T1, human CD30 (commercial, conjugated to …); test: AlphaScreen competition; remark: listed apart in the source

Binder	Fold IC50 vs H3/L3 [1] [fold]	Fold IC50 vs H3/L3 [2] [fold]
AC10 H3.50/L3 (antibody, IgG1, name in Kabat numbering, V domains shown) VH: QIQLVQSGPEVKKPGASVKVSCKASGYTFTDYYITWVRQAPGQGLEWMGWIYPGSGNTKYNEKFQGRFVFSVDTSASTAYLQISSLKAEDTAVYFCVNYGNYWFAYWGQGTLVTVSS VL: DIVLTQSPDSLAVSLGERATINCKASQSVDFDGDSYMNWYQQKPGQPPKVLIYAASNLESGIPARFSGSGSGTDFTLTINSLEAEDAATYYCQQSNEDPWTFGGGTKVEIK	1.4	
AC10 H3.58/L3 (antibody, IgG1, name in Kabat numbering, V domains shown) VH: QIQLVQSGPEVKKPGASVKVSCKASGYTFTDYYITWVRQAPGQGLEWMGWIYPGSGNTKYNEKFQGRFVFSVDTSASTAYLQISSLKAEDTAVYFCANYGNYWFQYWGQGTLVTVSS VL: DIVLTQSPDSLAVSLGERATINCKASQSVDFDGDSYMNWYQQKPGQPPKVLIYAASNLESGIPARFSGSGSGTDFTLTINSLEAEDAATYYCQQSNEDPWTFGGGTKVEIK	0.16	
AC10 H3.52/L3 (antibody, IgG1, name in Kabat numbering, V domains shown) VH: QIQLVQSGPEVKKPGASVKVSCKASGYTFTDYYITWVRQAPGQGLEWMGWIYPGSGNTKYNEKFQGRFVFSVDTSASTAYLQISSLKAEDTAVYFCAHYGNYWFAYWGQGTLVTVSS VL: DIVLTQSPDSLAVSLGERATINCKASQSVDFDGDSYMNWYQQKPGQPPKVLIYAASNLESGIPARFSGSGSGTDFTLTINSLEAEDAATYYCQQSNEDPWTFGGGTKVEIK	1.24	
AC10 H3.55/L3 (antibody, IgG1, name in Kabat numbering, V domains shown) VH: QIQLVQSGPEVKKPGASVKVSCKASGYTFTDYYITWVRQAPGQGLEWMGWIYPGSGNTKYNEKFQGRFVFSVDTSASTAYLQISSLKAEDTAVYFCATYGNYWFAYWGQGTLVTVSS VL: DIVLTQSPDSLAVSLGERATINCKASQSVDFDGDSYMNWYQQKPGQPPKVLIYAASNLESGIPARFSGSGSGTDFTLTINSLEAEDAATYYCQQSNEDPWTFGGGTKVEIK	0.91	
AC10 H3.63/L3 (antibody, IgG1, name in Kabat numbering, V domains shown) VH: QIQLVQSGPEVKKPGASVKVSCKASGYTFTDYYITWVRQAPGQGLEWMGWIYPGSGNTKYNEKFQGRFVFSVDTSASTAYLQISSLKAEDTAVYFCANYGNYWFAFWGQGTLVTVSS VL: DIVLTQSPDSLAVSLGERATINCKASQSVDFDGDSYMNWYQQKPGQPPKVLIYAASNLESGIPARFSGSGSGTDFTLTINSLEAEDAATYYCQQSNEDPWTFGGGTKVEIK	1.24	
AC10 H3.60/L3 (antibody, IgG1, name in Kabat numbering, V domains shown) VH: QIQLVQSGPEVKKPGASVKVSCKASGYTFTDYYITWVRQAPGQGLEWMGWIYPGSGNTKYNEKFQGRFVFSVDTSASTAYLQISSLKAEDTAVYFCANYGNYWFASWGQGTLVTVSS VL: DIVLTQSPDSLAVSLGERATINCKASQSVDFDGDSYMNWYQQKPGQPPKVLIYAASNLESGIPARFSGSGSGTDFTLTINSLEAEDAATYYCQQSNEDPWTFGGGTKVEIK	0.82	
AC10 H3/L3.2 (antibody, IgG1, name in Kabat numbering, V domains shown) VH: QIQLVQSGPEVKKPGASVKVSCKASGYTFTDYYITWVRQAPGQGLEWMGWIYPGSGNTKYNEKFQGRFVFSVDTSASTAYLQISSLKAEDTAVYFCANYGNYWFAYWGQGTLVTVSS VL: EIVLTQSPDSLAVSLGERATINCKASQSVDFDGDSYMNWYQQKPGQPPKVLIYAASNLESGIPARFSGSGSGTDFTLTINSLEAEDAATYYCQQSNEDPWTFGGGTKVEIK		1.24
AC10 H3.57/L3 (antibody, IgG1, name in Kabat numbering, V domains shown) VH: QIQLVQSGPEVKKPGASVKVSCKASGYTFTDYYITWVRQAPGQGLEWMGWIYPGSGNTKYNEKFQGRFVFSVDTSASTAYLQISSLKAEDTAVYFCANYGNYWFDYWGQGTLVTVSS VL: DIVLTQSPDSLAVSLGERATINCKASQSVDFDGDSYMNWYQQKPGQPPKVLIYAASNLESGIPARFSGSGSGTDFTLTINSLEAEDAATYYCQQSNEDPWTFGGGTKVEIK	0.53	
AC10 H3.64/L3 (antibody, IgG1, name in Kabat numbering, V domains shown) VH: QIQLVQSGPEVKKPGASVKVSCKASGYTFTDYYITWVRQAPGQGLEWMGWIYPGSGNTKYNEKFQGRFVFSVDTSASTAYLQISSLKAEDTAVYFCANYGNYWFAYWGRGTLVTVSS VL: DIVLTQSPDSLAVSLGERATINCKASQSVDFDGDSYMNWYQQKPGQPPKVLIYAASNLESGIPARFSGSGSGTDFTLTINSLEAEDAATYYCQQSNEDPWTFGGGTKVEIK	1.28	
AC10 H3/L3.1 (antibody, IgG1, name in Kabat numbering, V domains shown) VH: QIQLVQSGPEVKKPGASVKVSCKASGYTFTDYYITWVRQAPGQGLEWMGWIYPGSGNTKYNEKFQGRFVFSVDTSASTAYLQISSLKAEDTAVYFCANYGNYWFAYWGQGTLVTVSS VL: AIVLTQSPDSLAVSLGERATINCKASQSVDFDGDSYMNWYQQKPGQPPKVLIYAASNLESGIPARFSGSGSGTDFTLTINSLEAEDAATYYCQQSNEDPWTFGGGTKVEIK		1.3
AC10 H3.59/L3 (antibody, IgG1, name in Kabat numbering, V domains shown) VH: QIQLVQSGPEVKKPGASVKVSCKASGYTFTDYYITWVRQAPGQGLEWMGWIYPGSGNTKYNEKFQGRFVFSVDTSASTAYLQISSLKAEDTAVYFCANYGNYWFAHWGQGTLVTVSS VL: DIVLTQSPDSLAVSLGERATINCKASQSVDFDGDSYMNWYQQKPGQPPKVLIYAASNLESGIPARFSGSGSGTDFTLTINSLEAEDAATYYCQQSNEDPWTFGGGTKVEIK	1.05	
AC10 H3.53/L3 (antibody, IgG1, name in Kabat numbering, V domains shown) VH: QIQLVQSGPEVKKPGASVKVSCKASGYTFTDYYITWVRQAPGQGLEWMGWIYPGSGNTKYNEKFQGRFVFSVDTSASTAYLQISSLKAEDTAVYFCAKYGNYWFAYWGQGTLVTVSS VL: DIVLTQSPDSLAVSLGERATINCKASQSVDFDGDSYMNWYQQKPGQPPKVLIYAASNLESGIPARFSGSGSGTDFTLTINSLEAEDAATYYCQQSNEDPWTFGGGTKVEIK	0.02	
AC10 H3.62/L3 (antibody, IgG1, name in Kabat numbering, V domains shown) VH: QIQLVQSGPEVKKPGASVKVSCKASGYTFTDYYITWVRQAPGQGLEWMGWIYPGSGNTKYNEKFQGRFVFSVDTSASTAYLQISSLKAEDTAVYFCANYGNYWFALWGQGTLVTVSS VL: DIVLTQSPDSLAVSLGERATINCKASQSVDFDGDSYMNWYQQKPGQPPKVLIYAASNLESGIPARFSGSGSGTDFTLTINSLEAEDAATYYCQQSNEDPWTFGGGTKVEIK	1.22	
AC10 H3.54/L3 (antibody, IgG1, name in Kabat numbering, V domains shown) VH: QIQLVQSGPEVKKPGASVKVSCKASGYTFTDYYITWVRQAPGQGLEWMGWIYPGSGNTKYNEKFQGRFVFSVDTSASTAYLQISSLKAEDTAVYFCARYGNYWFAYWGQGTLVTVSS VL: DIVLTQSPDSLAVSLGERATINCKASQSVDFDGDSYMNWYQQKPGQPPKVLIYAASNLESGIPARFSGSGSGTDFTLTINSLEAEDAATYYCQQSNEDPWTFGGGTKVEIK	0	
AC10 H3.61/L3 (antibody, IgG1, name in Kabat numbering, V domains shown) VH: QIQLVQSGPEVKKPGASVKVSCKASGYTFTDYYITWVRQAPGQGLEWMGWIYPGSGNTKYNEKFQGRFVFSVDTSASTAYLQISSLKAEDTAVYFCANYGNYWFAVWGQGTLVTVSS VL: DIVLTQSPDSLAVSLGERATINCKASQSVDFDGDSYMNWYQQKPGQPPKVLIYAASNLESGIPARFSGSGSGTDFTLTINSLEAEDAATYYCQQSNEDPWTFGGGTKVEIK	1.21	
